What was measured:
GPdMucin [1] = target: T1, GPdMucin (Ebola virus (EBOV), UniProt Q05320 33-632); assay: ELISA on coated truncated GP
T1 construct: domain: GPdMucin; also called GPΔMuc; GPdmucin-His6

GPdMucin [2] = target: T1, GPdMucin; assay: SPR, BIACORE 3000; 2G1 captured by anti-human IgG Fc on CM5, GPdMucin as analyte

B1: monoclonal antibody 2G1 (antibody, V domains shown)
VH: EVQLVESGGGLVKRGGSLRLSCVVSGYTFGGYSMHWVRQAPGKGLEWVSGISSSSYYKYYADSVKGRFTISRDNAKNSLYLQMNSLRAEDTAVYYCARDMGYCSGGSCPNFDFWGQGTTVTVSS
VL: DIQMTQSPSSLSASVGDRVTITCRTSQSISNYLNWYQQIPGKAPKLLISTASNLHSGVSSRFSGSGSGTHFTLTISSLQPEDFATYYCQQSYSTPSFGQGTKVEIKR
notes: also called 2G1-WT; wild-type 2G1
GPdMucin [1]
  EC50: 3.7 ng/mL
GPdMucin [2]
  Kd: 0.734 nM
  koff: 3.75e-05 s⁻¹
  kon: 51100 M⁻¹ s⁻¹

From US20240254201A1 (ACADEMY OF MILITARY MEDICAL SCIENCE PLA, published 2024)
